± gives the half width of the 95% confidence interval.
Experiments:
[1] = folding stability dG unfold from trypsin proteolysis; higher = more stable
Outline: (§1)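 Designed mini-proteins with no cysteine and under 80 residues were kept only if AlphaFold2 dimer inter-PAE was above 15. In a PA-tagged cDNA display construct, they were digested with trypsin and chymotrypsin and then sequenced. K50 was inferred by Bayesian fitting of counts, and unfolding free energy was derived per protease or combined against a sequence-predicted unfolded-state K50 and a shared folded-state K50.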

[2] = folding stability dG unfold from chymotrypsin proteolysis; higher = more stable
Outline: as §1

[3] = folding stability dG unfold (combined trypsin and chymotrypsin); higher = more stable
Outline: as §1

For “SAGGSAGGSMKWTSIASYPHPDMVVHVIKFEGGGELTFPAPFEDLVEIAEKFDLDLEFTGDHPSAGGSAGGS [r12_676_TrMRF]”, the “folding stability dG unfold” value [1] was 0.45 ± 0.072 kcal/mol, the “folding stability dG unfold” value [2] was 0.28 ± 0.11 kcal/mol and the “folding stability dG unfold” value [3] was 0.447 ± 0.11 kcal/mol.
With “SAGGSAGGSMNTTTTPTAVPAGATLTVTVTSSSKSYSVPPAGPVTVTTTSGSSGTTVTVDVVASAGGSAGGS [r12_919_JUSTAS]” the “folding stability dG unfold” value [1] was 0.314 ± 0.022 kcal/mol, the “folding stability dG unfold” value [2] was 0.618 ± 0.051 kcal/mol and the “folding stability dG unfold” value [3] was 0.53 ± 0.043 kcal/mol.
With “SAGGSAGGSMPAGVLVTVTITITKPGKPETLDELDVTVAEGDLDALEEEFAEKYPGLEVTVVRSAGGSAGGS [r12_21_JUSTAS]” the “folding stability dG unfold” value [1] was 0.818 ± 0.08 kcal/mol, the “folding stability dG unfold” value [2] was 1.92 ± 0.089 kcal/mol and the “folding stability dG unfold” value [3] was 1.6 ± 0.1 kcal/mol.
For “SAGGSAGGSMPDLRPAPVPALVIPLDLPLEEAIEKARELLDLPEDTEIPIAEFDPETGKIVIASAGGSAGGS [r12_815_TrMRF]”, the “folding stability dG unfold” value [1] was 0.533 ± 0.024 kcal/mol, the “folding stability dG unfold” value [2] was 1.94 ± 0.051 kcal/mol and the “folding stability dG unfold” value [3] was 1.57 ± 0.039 kcal/mol.
For “SAGGSAGGSMPGETVTLNVKTTVEVTTTLSSPSGSPFPVSVTREVTIPITVSSEELKKGLITLESAGGSAGG [r6_138_JUSTAS]”, the “folding stability dG unfold” value [1] was -0.473 ± 0.2 kcal/mol, the “folding stability dG unfold” value [2] was 0.291 ± 0.15 kcal/mol and the “folding stability dG unfold” value [3] was 0.229 ± 0.13 kcal/mol.
With “SAGGSAGGSMPPNFRVMIHDDDGEERTFHMSPEDLKEFADNLPDVKVEPHPPGMMHITVRVPKSAGGSAGGS [r20_231_TrROS]” the “folding stability dG unfold” value [1] was -0.72 ± 0.19 kcal/mol, the “folding stability dG unfold” value [2] was 0.454 ± 0.085 kcal/mol and the “folding stability dG unfold” value [3] was 0.101 ± 0.092 kcal/mol.
With “SAGGSAGGSMPVVEVEITVSYTVPETGEILTKPETITMTPEEAEKIKEELEKKGYKVEVKYNPKSAGGSAGG [r6_97_JUSTAS]” the “folding stability dG unfold” value [1] was 0.824 ± 0.043 kcal/mol, the “folding stability dG unfold” value [2] was 1.21 ± 0.067 kcal/mol and the “folding stability dG unfold” value [3] was 1.15 ± 0.1 kcal/mol.
In the case of “SAGGSAGGSMPVVRIKVRYFNKDGKPVKEKEITITLPAEEITADELRKRLEEAGYEIVEIEVVSAGGSAGGS [r12_611_TrROS_Hall]”, the “folding stability dG unfold” value [1] is reported as 3.42 ± 0.08 kcal/mol, the “folding stability dG unfold” value [2] is reported as 3.63 ± 0.054 kcal/mol and the “folding stability dG unfold” value [3] is reported as 3.58 ± 0.061 kcal/mol.
In the case of “SAGGSAGGSMRIEFPELGVEVELEPLPGPHVLLRAVFPDGRVYLFRLDPDGRLVEVEPVEVLASAGGSAGGS [r12_56_TrMRF]”, the “folding stability dG unfold” value [1] is reported as 2.99 ± 0.089 kcal/mol, the “folding stability dG unfold” value [2] is reported as 3.42 ± 0.035 kcal/mol and the “folding stability dG unfold” value [3] is reported as 3.23 ± 0.11 kcal/mol.
In the case of “SAGGSAGGSMSLKGVKITEVTNPGGKVTITYTGDGVPQTITIPPAERALIEKLRESGDISFSPSAGGSAGGS [r12_604_JUSTAS]”, the “folding stability dG unfold” value [1] is reported as 0.708 ± 0.043 kcal/mol, the “folding stability dG unfold” value [2] is reported as 0.579 ± 0.17 kcal/mol and the “folding stability dG unfold” value [3] is reported as 0.743 ± 0.1 kcal/mol.
In the case of “SAGGSAGGSMSPSSSYTIEKVSEDPSRGVITLKITYPTGESITLKLSPADEEKAEEEAKKLLESAGGSAGGS [r20_167_JUSTAS]”, the “folding stability dG unfold” value [1] is reported as 1.68 ± 0.04 kcal/mol, the “folding stability dG unfold” value [2] is reported as 1.63 ± 0.1 kcal/mol and the “folding stability dG unfold” value [3] is reported as 1.63 ± 0.17 kcal/mol.
In the case of “SAGGSAGGSMSVTLVKVERDPANNTITVTIKLPSGETAFTKTVAPGTTVTITFPDGTVLTVTESAGGSAGGS [r12_441_JUSTAS]”, the “folding stability dG unfold” value [1] is reported as 3.12 ± 0.078 kcal/mol, the “folding stability dG unfold” value [2] is reported as 3.1 ± 0.035 kcal/mol and the “folding stability dG unfold” value [3] is reported as 3.07 ± 0.061 kcal/mol.
With “SAGGSAGGSMSVTVVGRVPGLGLVEVVIHRPDEPVVVTVPRSEVEALLAAFPYPDAVVTTRDASAGGSAGGS [r12_23_JUSTAS]” the “folding stability dG unfold” value [1] was -0.043 ± 0.047 kcal/mol, the “folding stability dG unfold” value [2] was 0.205 ± 0.028 kcal/mol and the “folding stability dG unfold” value [3] was 0.151 ± 0.056 kcal/mol.
With “SAGGSAGGSMTAEELAKAFPNLPKEEITEIRVEKNEDGTITVTITVKNKNGEKIEIKVEIKLESAGGSAGGS [r12_1050_TrROS_Hall]” the “folding stability dG unfold” value [1] was 1.34 ± 0.097 kcal/mol, the “folding stability dG unfold” value [2] was 2.16 ± 0.067 kcal/mol and the “folding stability dG unfold” value [3] was 2.03 ± 0.1 kcal/mol.
With “SAGGSAGGSMTIKITLPEEGEKVKITIFVNGEEKEIEIEPGEEITIELPENVKNAIIIIEKEPSAGGSAGGS [r12_729_TrROS_Hall]” the “folding stability dG unfold” value [1] was 2.49 ± 0.1 kcal/mol, the “folding stability dG unfold” value [2] was 2.48 ± 0.058 kcal/mol and the “folding stability dG unfold” value [3] was 2.54 ± 0.11 kcal/mol.
In the case of “SAGGSAGGSMTIPILFPIPPGQPPGMEITFRFPGYKIEIEILEVDPENGWIAFMIELTDPGDDSAGGSAGGS [r12_1039_TrROS]”, the “folding stability dG unfold” value [1] is reported as 3.13 ± 0.093 kcal/mol, the “folding stability dG unfold” value [2] is reported as 4.36 ± 0.095 kcal/mol and the “folding stability dG unfold” value [3] is reported as 3.92 ± 0.11 kcal/mol.
In the case of “SAGGSAGGSMTSVTTLVETETLTNGNTIVPQLVQITVTLEVPAVPPEEIKPKPAPGDRWTYYSSAGGSAGGS [r12_1031_JUSTAS]”, the “folding stability dG unfold” value [1] is reported as 1.01 ± 0.073 kcal/mol, the “folding stability dG unfold” value [2] is reported as 1.1 ± 0.16 kcal/mol and the “folding stability dG unfold” value [3] is reported as 1.12 ± 0.18 kcal/mol.
In the case of “SAGGSAGGSMTTKTFKLPDGRTVTVTTEKLPNGTTKTTVTITVPGTGKTTTVPASEVPADFSGSAGGSAGGS [r12_797_JUSTAS]”, the “folding stability dG unfold” value [1] is reported as 1.24 ± 0.038 kcal/mol, the “folding stability dG unfold” value [2] is reported as 2.08 ± 0.025 kcal/mol and the “folding stability dG unfold” value [3] is reported as 1.83 ± 0.068 kcal/mol.

From the supplement of paper PMC12764529
